Reference: patent US20140120098A1 (DANSK UNIVERSITET, published 2014)

Biological target: T1, acetylated BSA (bovine, UniProt P02769 25-607, acetylated (N-acetyl groups; positions not stated); 125I-labelled or Alexa Fluor 488 C5 maleimide-labelled in the uptake experiments)
T1 construct: also called NAc-BSA; N-acetyl bovine serum albumin
Assay: ELISA, plates coated with acetylated BSA, 5 mM CaCl2

T1 sequence (P02769 25-607 limits assumed): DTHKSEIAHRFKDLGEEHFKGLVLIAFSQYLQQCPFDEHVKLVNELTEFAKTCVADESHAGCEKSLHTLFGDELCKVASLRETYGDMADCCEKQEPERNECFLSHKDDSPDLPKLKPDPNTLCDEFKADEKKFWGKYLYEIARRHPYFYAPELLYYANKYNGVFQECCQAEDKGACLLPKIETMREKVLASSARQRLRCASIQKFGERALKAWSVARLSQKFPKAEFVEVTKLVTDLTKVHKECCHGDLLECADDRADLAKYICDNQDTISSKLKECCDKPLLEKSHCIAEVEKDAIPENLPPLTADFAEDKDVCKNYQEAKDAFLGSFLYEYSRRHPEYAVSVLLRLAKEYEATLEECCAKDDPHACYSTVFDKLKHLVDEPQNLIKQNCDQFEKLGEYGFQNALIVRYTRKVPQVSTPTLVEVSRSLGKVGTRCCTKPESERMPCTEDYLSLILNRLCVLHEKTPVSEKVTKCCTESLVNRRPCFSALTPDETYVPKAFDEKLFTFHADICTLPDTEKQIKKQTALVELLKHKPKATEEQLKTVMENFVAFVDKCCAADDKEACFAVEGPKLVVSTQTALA

Row | binding result | Binder
1 | no binding | FIBCD1 FReD A432V (receptor) ATGSRPRDCLDVLLSGQQDDGVYSVFPTHYPAGFQVYCDMRTDGGGWTVFQRREDGSVNFFRGWDAYRDGFGRLTGEHWLGLKRIHALTTQAAYELHVDLEDFENGTAYARYGSFGVGLFSVDPEEDGYPLTVADYSGTAGDSLLKHSGMRFTTKDRDSDHSENNCAAFYRGAWWYRNCHTSNLNGQYLRGAHASYVDGVEWSSWTGWQYSLKFSEMKIRPVREDR
2 | no binding | FIBCD1 FReD H415G (receptor) ATGSRPRDCLDVLLSGQQDDGVYSVFPTHYPAGFQVYCDMRTDGGGWTVFQRREDGSVNFFRGWDAYRDGFGRLTGEHWLGLKRIHALTTQAAYELHVDLEDFENGTAYARYGSFGVGLFSVDPEEDGYPLTVADYSGTAGDSLLKHSGMRFTTKDRDSDHSENNCAAFYRGAWWYRNCGTSNLNGQYLRGAHASYADGVEWSSWTGWQYSLKFSEMKIRPVREDR
